Biological target: BicDR1 E165R/E167K-GFP (mouse) (UniProt A0JNT9)
UniProt A0JNT9, sequence (A0JNT9 whole entry E165R/E167K): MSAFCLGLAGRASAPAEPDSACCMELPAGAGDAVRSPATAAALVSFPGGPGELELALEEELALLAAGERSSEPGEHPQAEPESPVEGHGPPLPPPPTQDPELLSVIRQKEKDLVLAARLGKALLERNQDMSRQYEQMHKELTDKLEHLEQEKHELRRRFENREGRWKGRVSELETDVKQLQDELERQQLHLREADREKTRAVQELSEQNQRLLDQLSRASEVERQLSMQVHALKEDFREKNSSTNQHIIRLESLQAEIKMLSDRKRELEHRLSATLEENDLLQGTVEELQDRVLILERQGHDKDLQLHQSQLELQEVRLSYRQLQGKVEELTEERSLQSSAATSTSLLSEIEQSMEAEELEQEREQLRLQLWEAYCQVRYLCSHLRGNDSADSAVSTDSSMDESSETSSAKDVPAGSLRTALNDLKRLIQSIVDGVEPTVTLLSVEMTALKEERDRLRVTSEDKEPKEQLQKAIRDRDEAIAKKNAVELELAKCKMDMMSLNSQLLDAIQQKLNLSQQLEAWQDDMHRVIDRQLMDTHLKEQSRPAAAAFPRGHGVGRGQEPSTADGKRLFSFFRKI

Q: Which reduction of recruitment against BicDR1 does the source give for “dynein long tail (SNAP-DYNC1H1 1-1,074-GST with associated chains) (from UniProt Q14204;O43237;P63172;P63167;Q9NP97) (complex)” here?
A: 50%
